Assay results from IntAct's records for PubMed 17525340.

B1: BRCA1-A complex subunit Abraxas 1 (Homo sapiens), Q6UWZ7 (parent)
chain: MEGESTSAVLSGFVLGALAFQHLNTDSDTEGFLLGEVKGEAKNSITDSQMDDVEVVYTIDIQKYIPCYQLFSFYNSSGEVNEQALKKILSNVKKNVVGWYKFRRHSDQIMTFRERLLHKNLQEHFSNQDLVFLLLTPSIITESCSTHRLEHSLYKPQKGLFHRVPLVVANLGMSEQLGYKTVSGSCMSTGFSRAVQTHSSKFFEEDGSLKEVHKINEMYASLQEELKSICKKVEDSEQAVDKLVKDVNRLKREIEKRRGAQIQAAREKNIQKDPQENIFLCQALRTFFPNSEFLHSCVMSLKNRHVSKSSCNYNHHLDVVDNLTLMVEHTDIPEASPASTPQIIKHKALDLDDRWQFKRSRLLDTQDKRSKADTGSSNQDKASKMSSPETDEEIEKMKGFGEYSRSPTF
B2: BRCA1-A complex subunit Abraxas 1 (Homo sapiens), Q6UWZ7 (parent)
chain: B1 chain
partner: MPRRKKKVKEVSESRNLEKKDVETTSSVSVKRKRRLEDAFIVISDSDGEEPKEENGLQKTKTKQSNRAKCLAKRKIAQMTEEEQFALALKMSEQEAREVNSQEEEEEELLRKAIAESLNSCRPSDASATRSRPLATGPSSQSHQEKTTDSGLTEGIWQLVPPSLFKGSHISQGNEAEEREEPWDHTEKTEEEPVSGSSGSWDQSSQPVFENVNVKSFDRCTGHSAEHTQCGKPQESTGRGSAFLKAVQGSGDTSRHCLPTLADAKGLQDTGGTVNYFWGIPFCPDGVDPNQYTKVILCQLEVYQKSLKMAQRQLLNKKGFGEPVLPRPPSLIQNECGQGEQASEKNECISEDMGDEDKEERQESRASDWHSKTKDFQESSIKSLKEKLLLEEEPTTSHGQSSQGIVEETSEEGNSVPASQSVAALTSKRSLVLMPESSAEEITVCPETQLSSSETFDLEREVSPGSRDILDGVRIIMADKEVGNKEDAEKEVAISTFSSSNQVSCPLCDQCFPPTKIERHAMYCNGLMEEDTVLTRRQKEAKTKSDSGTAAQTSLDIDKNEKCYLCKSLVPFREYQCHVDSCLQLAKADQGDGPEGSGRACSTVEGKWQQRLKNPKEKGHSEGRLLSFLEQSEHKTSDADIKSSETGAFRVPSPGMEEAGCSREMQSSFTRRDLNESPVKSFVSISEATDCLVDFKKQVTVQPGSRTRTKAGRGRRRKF

Variants of: B1
Details: with brca1_human BRCA1, P38398
Chain of brca1_human BRCA1, P38398 (P38398 whole entry, looked up): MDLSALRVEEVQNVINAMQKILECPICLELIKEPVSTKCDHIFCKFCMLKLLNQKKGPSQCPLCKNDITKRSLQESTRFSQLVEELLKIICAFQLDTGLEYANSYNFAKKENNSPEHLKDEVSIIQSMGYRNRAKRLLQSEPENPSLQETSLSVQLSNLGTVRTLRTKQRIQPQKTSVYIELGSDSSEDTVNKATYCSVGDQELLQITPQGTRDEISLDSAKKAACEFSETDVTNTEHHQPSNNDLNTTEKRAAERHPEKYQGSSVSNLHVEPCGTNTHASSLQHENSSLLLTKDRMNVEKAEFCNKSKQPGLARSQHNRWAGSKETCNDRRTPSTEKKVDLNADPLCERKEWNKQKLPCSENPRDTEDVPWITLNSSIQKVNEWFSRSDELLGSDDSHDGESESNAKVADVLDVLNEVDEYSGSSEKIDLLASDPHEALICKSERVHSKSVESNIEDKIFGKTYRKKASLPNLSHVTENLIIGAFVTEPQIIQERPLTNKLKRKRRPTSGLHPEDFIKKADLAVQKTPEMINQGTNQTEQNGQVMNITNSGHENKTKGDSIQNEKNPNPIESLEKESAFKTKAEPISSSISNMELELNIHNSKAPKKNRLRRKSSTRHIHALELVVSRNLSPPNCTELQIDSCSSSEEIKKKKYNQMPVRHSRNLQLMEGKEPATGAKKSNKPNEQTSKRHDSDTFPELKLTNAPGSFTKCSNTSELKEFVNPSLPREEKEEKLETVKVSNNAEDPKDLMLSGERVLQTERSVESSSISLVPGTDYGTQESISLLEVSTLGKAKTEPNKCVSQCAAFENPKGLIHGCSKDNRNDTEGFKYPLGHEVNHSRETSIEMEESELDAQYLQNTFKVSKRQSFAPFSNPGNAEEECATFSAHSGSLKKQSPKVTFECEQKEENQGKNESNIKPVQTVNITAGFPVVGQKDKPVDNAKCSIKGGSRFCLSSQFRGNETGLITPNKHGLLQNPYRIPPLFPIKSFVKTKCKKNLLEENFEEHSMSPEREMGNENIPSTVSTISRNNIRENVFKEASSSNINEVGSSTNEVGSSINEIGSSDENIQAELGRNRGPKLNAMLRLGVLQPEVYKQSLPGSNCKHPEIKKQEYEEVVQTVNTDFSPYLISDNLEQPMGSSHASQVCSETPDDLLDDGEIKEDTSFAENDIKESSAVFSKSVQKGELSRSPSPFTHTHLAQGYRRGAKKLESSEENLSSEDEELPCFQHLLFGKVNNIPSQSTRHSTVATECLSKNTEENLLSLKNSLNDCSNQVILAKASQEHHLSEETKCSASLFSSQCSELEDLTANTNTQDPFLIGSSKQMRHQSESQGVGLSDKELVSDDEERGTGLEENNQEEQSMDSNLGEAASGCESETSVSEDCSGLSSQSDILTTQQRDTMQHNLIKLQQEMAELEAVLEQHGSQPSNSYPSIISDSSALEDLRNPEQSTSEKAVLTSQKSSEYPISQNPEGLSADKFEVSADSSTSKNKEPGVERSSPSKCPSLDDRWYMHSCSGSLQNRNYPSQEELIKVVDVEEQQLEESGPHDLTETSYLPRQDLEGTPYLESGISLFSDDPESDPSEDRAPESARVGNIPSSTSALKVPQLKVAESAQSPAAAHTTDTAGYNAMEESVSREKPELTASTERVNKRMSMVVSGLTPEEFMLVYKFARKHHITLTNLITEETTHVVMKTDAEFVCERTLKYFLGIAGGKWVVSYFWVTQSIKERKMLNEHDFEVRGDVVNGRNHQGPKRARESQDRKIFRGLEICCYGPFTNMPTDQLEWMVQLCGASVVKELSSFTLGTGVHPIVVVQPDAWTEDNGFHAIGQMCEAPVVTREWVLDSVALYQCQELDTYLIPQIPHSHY

Variant | effect of a mutation on the interaction
S406A | disrupting interaction

Variants of: B1
Details: with brca1_human BRCA1, P38398
Remark: another data set of the same source

Variant | effect of a mutation on the interaction
S406A | increasing interaction

Variants of: B2
Details: with uimc1_human UIMC1, Q96RL1

Variant | effect of a mutation on the interaction
S406A | disrupting interaction
